assay: yeast display, Sf9 membrane polyspecificity reagent, FACS + sequencing; frameworks hold sequencing errors
How it was run: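 Nanobodies from a synthetic yeast display library (Saccharomyces cerevisiae BJ5465), induced 36–48 hours with galactose, were stained 1 hour at 4 °C with 10% biotinylated, detergent-solubilized Sf9 membrane reagent, enriched on streptavidin microbeads, then FACS-sorted. Anti-HA (expression) and streptavidin (reagent binding) fluorescence set low and high (top ~1%) gates. Polyreactivity labels come from the gate of origin. Genes were colony-PCR amplified, MiSeq 2 × 250 sequenced and filtered by CDR length.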

| Sequence | polyreactivity (PSR sort gate) |
| --- | --- |
| QVQLVESVVGLVQPRGSLRLSSASSGRTFRQYAMGRYRQAPGKERDLVAAIRTNGGRTYYADSVKGRFTISRDNAKNTVYLQMNSQKPEDTAVYYCAVYAFVQGVLFDYWGQGTQVTVSS | high polyreactivity |
| QVQLVESVVVLVQAGGSLRLSCAASGFTIPFYAMGWYRQARGKERDLVAAISQSGVRTYYADSVKGRFTISRDNAKYTVYLQMKSLKPEDTAVYFCNVAYRGALDIHSYWYPSEYWGQGTQVTVSS | high polyreactivity |
| QVQLVESWGALVQAGGSLRLSCAASGSTFGSNAMGWYRQAPGKERELVAAITYSGGRTYYADSVKGRFTISRDNAKNTVYLQMNSLTPEDTAVYYCAATFGFFYYQYDYWGQGTQVTVSS | low polyreactivity |
| QVQLVESWGALVQAGGSLRLSCAASGSTFGYYAMGWYRQAPGKDRELVAAITRSGGSTSYADSVTGRFTISRDNAKNTVYLQMNSLKPEATAVYYCAARFYRPYYARQGYNYWGQGTKVTVSS | high polyreactivity |
| QVQLVESWGGLFQAGGRLRLSSAASGFTFPRYAMGWYRHSPGKERELVAAISRGGSTNYADSVKGRFTISRDNAMNTVYLQMNSLKPEVTAVYYCNVRLEYRYYRGDYWGQGTQVTVSS | high polyreactivity |
| QVQLVESWGGLVQAGGSHRLSCSASGTILGDYGMGWYRQAPGKEREMVGAITWNGDSTYYADSVKGRFTISRDNAKNTVYLQMNSLKPEDTAVYYCAADLKDYKYYPWYGYWGQGTQVTVSS | low polyreactivity |
| QVQLVESWGGLVQAGGSLHLSCAASGSTFQEYAMGWYRQAPGKERELVASIRWSGGRTYYADSVKGRFTISRDNAKNTVYLQMNSLKPEDTAFYYCAAGQWWYQVRFDYWGQGTQVTVSS | low polyreactivity |
| QVQLVESWGGLVQAGGSLRLRCAASGRTIDYNAIGWYRQAPRKEREFVADISNGGTTSYADSVKGSFTFSRDNAKNTVYLHMNSLKPEVTAVYYCATLYDWSSFANSYWYFGWEEDYWGQGTQVTVSS | low polyreactivity |
| QVQLVESWGGLVQAGGSLRLSCAASGHTFREKAMGWYRQAPGKERELLAAITSSGRTYYADSVKGRFTISRDNAKNTVYLQMNRQKPEDTAVYYCAADYWYVYPRYNPGDYWGQGSQVTVSS | high polyreactivity |
| QVQLVESWGGLVQAGGSLRLSCAASGIIFVSNAMGWYRQATGKERELVATINWSDDSTYYADSVKGRFTISRDNAKNTVYLQMNSLKPEDTAVYYCAADDYAVDYSYYYNDEYDYWGQGTQVTVSS | low polyreactivity |
| QVQLVESWGGLVQAGGSLRLSCAASGIIRSNAMGWYRQAPGKERELVAVISSSGGRTYYADSVKGRFTISRDNAKNTVYLQMNSLKPEDTAVYYCAAQVQVGAFSYYYWGQGTQVTVSS | high polyreactivity |
| QVQLVESWGGLVQAGGSLRLSCAASGITFTVYAMGWYRQPPGKERELVAAITRGTSTYADSVKGRFTISRDNAKNTVYLQMNSLKPEDTAVYYCAARSSPWYTRYRSSELFDYWGQGTQVTVSS | high polyreactivity |
| QVQLVESWGGLVQAGGSLRLSCAASGLIFNYYAMGWYRQAPGKERELVAAITTGGGTYYADSVKGRFTISRDNAKNTVYLQMNSLKPEDTAVYYCAAVWGNRSRYPGHYYWGQGTQVTVSS | high polyreactivity |
| QVQLVESWGGLVQAGGSLRLSCAASGRIFANYGMGWYRQAPRKERELVAAIDRSGGTTFYADSVKGRFTISRDNAKNTVYLQMNSLKPEDTAVYYCAAALSYWYYAYYYWGQGTQVTVSS | low polyreactivity |
| QVQLVESWGGLVQAGGSLRLSCAASGRIFKLYAMGWYRQAPGKERELVAGINWSGGTTYYAESVKGRFTISRDNAKNTVYLQMNSLKPEDTAVYYCAARTRNGAGYYWGQGTQVTVSS | high polyreactivity |
| QVQLVESWGGLVQAGGSLRLSCAASGRTFDRYDMGWYRQAPGKERELVATISSSGGSTYYADSVKGRFTISRDNAKNTVYLQMNSLKPEDTAVYYCAADPSGDYWGQGTQVTVSS | low polyreactivity |
| QVQLVESWGGLVQAGGSLRLSCAASGRTFVTNAMGRYRQAPGTERELVAAISGSGGSTYYADSVTGRFTISRDNAKNTVYLQMNSLKPEDTAVYYCATSYSLGYARYGYWGQGTQVTVSS | high polyreactivity |
| QVQLVESWGGLVQAGGSLRLSCAASGSTFFSYAMGWYRQAPGKERELVAGIEWNGGDTNYADSVKGRFTISRDNAKNTVYLQMNSRKPVDTAVYYCATDYSYPGPFRRRERFDYWGQGTQVTVSS | low polyreactivity |
| QVQLVESWGGLVQAGGSLRLSCAASGSTFIGYAMGWYRQAPGKERELVAAISWSGGSTYYADSVKGRFTISRDNAKNTVYLQMNSLKPEDTAVYYCAASQYVQGHKYYYWGQGTQVTVSS | high polyreactivity |
| QVQLVESWGGLVQAGGSLRLSCAASGSTFIQNAMGWYRQAPGKERELVAAITSGGGTNYADSVKGRFTISRDNAQNTVYLQMNSLKPEDTAVYYCAAEPFNYDDFWFGWEYQYEYWGQGTQVTVSS | low polyreactivity |
| QVQLVESWGGLVQAGGSLRLSCAASGSTFRGNAMGWYRQAPGTERELVAAITRRGGSTYYADSVKGRFTISRDNAKNTVYLQMNSLKPEDPAVYYCAKVGRETEYDYWGQGTQVTVSS | high polyreactivity |
| QVQLVESWRGLVQAGGSLRLSCAASGNTFRWYAMGWYRQEPGKEREFVADITVRGGSTYYADSLKGRFTISRDNAKNTVYLQMNSLKPEQTAVYYCAVDFRRYPGFDYWGQGTQVTVSS | low polyreactivity |

| Sequence | polyreactivity (PSR sort gate) |
| --- | --- |
| QVQLVETAGGLVQAGGSLRLSSAASGRIFPFNTMGWSRQAPGKERELVATITYRGDRTYYADSVKGRFTISRDNAKNTVYLQMNSLKPEDTGVYYCNARGTYYLGRYYWGQGTQETVSS | high polyreactivity |
| QVQLVETCGGLVHAGGSLRLSCAASGSTFVDNSMGRYRQAPGKERELGADISWSGGSTYYADSVKGRFTNSRDNAKTTVYLQMNSLKPQDTAVYYCAAYRNDYGYWTYVYYTDDYDYWGQGTQVTVSS | low polyreactivity |
| QVQLVETGAGLVQAGGSLRLSCGASGLTFARYAMGWYRQAPGKERELVAGIDSTGGTTYYADSVKGRFTISRDNAKNTVYLQMNSLKPVDTAVYYCYYWGLGTQVTVSS | low polyreactivity |
| QVQLVETGGALVQAGGSLRLSCAASGFTFIDYTMGCYSQAPGKERELVARITDTGSTNYADSVKVRFTISRDNAKNTVYLQMNSLKQEDTAVYYCNKDDRNDRTIPGYDPEYDYWGQGTQVTVSS | low polyreactivity |
| QVQLVETGGGLFQAGGSLRLSCAASGFIYSYAMGWYRQAPGKERELDAAISRSGGSTYYADSVKGRFTISRDNAKNTVYLQMNSLKPEDTAVYYCAARPNSNRYVRYGYWGQGTQVTVSS | high polyreactivity |
| QVQLVETGGGLVHAGGSLRLSCAASGSIFDAYAMGWYRQAPGKERELFASITSGGRTNYADSVKGRFTISRDNAKNTVYLQMNSLKPEDTAVYYCAKVRTRATPGLDYYYWGQGTQVTVSS | high polyreactivity |
| QVQLVETGGGLVQAGGRLRLSCAASGITFYFNTMGWYRPAPGKERELVASISGGSSTYYADSVKGRFPISRDNAKNTVYLQMISLKREDTAVYYCNAQGSLFRGWFDYDYWGQGTQVTVSS | low polyreactivity |
| QVQLVETGGGLVQAGGSHRLSCAASGFIIPYYAKGWSRQPPGKERELLAAIDSGGSTNYADSVKGRFTISRDNAKNTVSLQMNRLIPEDTAVYYCAVPSYGVNIWGGFDEYNYWGQGTQVTVSS | high polyreactivity |
| QVQLVETGGGLVQAGGSLGLSCAASGRTFGVNAMGWYRQAPGKERELVAAITRGGNTYYADSVKGRFTISRDNAKNTVYLQMNSLKPEDTAVYYCAATGWLRIDRPYTYTYGYWGQGTQVTVSS | high polyreactivity |
| QVQLVETGGGLVQAGGSLRISCAASGFIFPSYAMGWYRQAPGKERELVAAITSGGRTYYADSVKGLFTISRDNAKKTVYLQMNSLKPEDYAVYYCAAKSHSKTGTRYYYCGQGTQVTVSS | high polyreactivity |
| QVQLVETGGGLVQAGGSLRLCCAASGRIFWYNAMGWYRPAPGKERELVAAISSIDGTTYYADSVKGRFTISRDNAKNTVYLQMNSLKPEDTAVYYCAAEDPADQYDYWGQGTQVTVSS | high polyreactivity |
| QVQLVETGGGLVQAGGSLRLSCAASASIFTANAMGWYRQAPGKERELVAAISRSGGRTYYADSVKGRFTISRDNAKNTVYLQMNSLKPEDTAVYYCAAVYVYPSTSRYDFWGQGTQVTVSS | high polyreactivity |
| QVQLVETGGGLVQAGGSLRLSCAASGFIFGYNARGWYRKAPGQVRELVAAISSGGRTYYADSVKGRFTISRDNAKHTVYLQMNSLKPQDTAVYYCSVDPHLYALRGAVYYWGQGTQVTVSS | low polyreactivity |
| QVQLVETGGGLVQAGGSLRLSCAASGFNFGPYDIGWYIQAPGKERELVAAITDSSGSTHYADSVKGRFTISRDNAKNTVYLQMNSLKPEDTAVYYWAADDSSRTTYDYWGQGTQVTVSS | low polyreactivity |
| QVQLVETGGGLVQAGGSLRLSCAASGFTFDVYVMGWYRLAPGKERELVAAISWSGDSTYYADSVKGRFTISRDNAKNTVYLQMNSLKPADCAFSFCAAVGYTSRRPVVRYYYWGQGTQVTVSS | high polyreactivity |
| QVQLVETGGGLVQAGGSLRLSCAASGFTFYNNAMGWYGQAPGKERELGAVITSNGGRTYYADSVKGRFTISRDNAKNTVYLQMNSLKPEDTAVYYCAKDYKAMYLYHYRISGGDVDYWGQGTQVTVSS | low polyreactivity |
| QVQLVETGGGLVQAGGSLRLSCAASGGIFVTYAMGWYRQAPGKERELVAAITSGDSTYYADSVKGRFTISRDNAKNTVYLQMNSLKAEDTGVYYCAVGSTDRVSAQGSYFTYDYWGQGTQVTVSS | low polyreactivity |
| QVQLVETGGGLVQAGGSLRLSCAASGIIFFYYGMGWYRQAPGKERELVARISSGGSTNYADSVKGRFTISRDNAKNTVYLHMNSLKQEDTAVYYCAARISTRYGYWGPGTQVTVSS | low polyreactivity |
| QVQLVETGGGLVQAGGSLRLSCAASGIIIQNNAMGWYRQAPGTERELVAAISSSGGRTYYADSVKGRFTISRDNAKNTVYLQMNSLKPEDTEVYYCNKRWRGSYDYWGQGTQVTVSS | high polyreactivity |
| QVQLVETGGGLVQAGGSLRLSCAASGITFASYDMGWYRQAPGKEWELVAAISSGGDTTYADSVKGRFTLSRDNAKNTVSLQMNSLKPEDTAVYYCNKDIDFAVSAYESSPRTMYYWGQGTQVTVSS | low polyreactivity |
| QVQLVETGGGLVQAGGSLRLSCAASGITLPKYAMGWYRQAPGKERELVAAISRSSGRTYYADSVKGRFTISRDNAKNTVYLQMNSLKPEDTAVYYCAASHGGYITRYNYWGQGTQVTVSS | high polyreactivity |

— the nanobody polyreactivity screen of Harvey et al. (2022)
